Laboratory results reported in doi:10.1101/2020.06.05.136150 (bioRxiv, 2020).
No end group written: not given here. *: point of attachment. FITC = O=C1OC2(c3ccc(O)cc3Oc3cc(O)ccc32)c2ccc(NC(=S)*)cc21

B1: FITC labeled peptide (FITC-K69-Q93) of FtsN (peptide)
peptide: {FITC}-KVTGNGLPPKPEERWRYIKELESRQ
B2: ^EFtsN peptide (L75-Q93), unlabeled (peptide)
peptide: LPPKPEERWRYIKELESRQ

What was measured:
PBP1bγ = biological target: T1, PBP1bγ (E. coli, UniProt P02919-2 1-799); assay: fluorescence polarisation
T1 sequence: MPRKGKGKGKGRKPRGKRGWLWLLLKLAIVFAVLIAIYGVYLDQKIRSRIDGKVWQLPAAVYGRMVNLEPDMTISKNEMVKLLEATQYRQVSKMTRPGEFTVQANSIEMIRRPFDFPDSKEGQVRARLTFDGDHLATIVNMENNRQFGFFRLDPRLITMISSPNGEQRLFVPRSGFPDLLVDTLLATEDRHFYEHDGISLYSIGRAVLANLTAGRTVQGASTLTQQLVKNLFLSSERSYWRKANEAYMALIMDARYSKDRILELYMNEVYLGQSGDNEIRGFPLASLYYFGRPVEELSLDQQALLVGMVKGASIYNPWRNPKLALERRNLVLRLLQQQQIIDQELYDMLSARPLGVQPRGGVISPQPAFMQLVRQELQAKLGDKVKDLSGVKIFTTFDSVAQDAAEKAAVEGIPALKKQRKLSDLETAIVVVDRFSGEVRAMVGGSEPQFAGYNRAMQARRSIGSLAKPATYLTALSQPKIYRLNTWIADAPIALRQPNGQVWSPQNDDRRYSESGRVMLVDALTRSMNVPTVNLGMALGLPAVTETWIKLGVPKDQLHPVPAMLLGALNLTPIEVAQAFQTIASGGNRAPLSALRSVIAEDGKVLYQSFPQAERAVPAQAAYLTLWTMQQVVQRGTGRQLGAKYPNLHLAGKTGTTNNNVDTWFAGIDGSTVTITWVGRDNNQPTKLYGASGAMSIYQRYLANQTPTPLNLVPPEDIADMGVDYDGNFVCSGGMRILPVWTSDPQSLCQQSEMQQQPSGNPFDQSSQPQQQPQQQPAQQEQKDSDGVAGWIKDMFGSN

PBP1b (58-804) = biological target: T2, PBP1b (58-804) (E. coli, UniProt P02919 58-804); assay: crystal structure
T2 sequence: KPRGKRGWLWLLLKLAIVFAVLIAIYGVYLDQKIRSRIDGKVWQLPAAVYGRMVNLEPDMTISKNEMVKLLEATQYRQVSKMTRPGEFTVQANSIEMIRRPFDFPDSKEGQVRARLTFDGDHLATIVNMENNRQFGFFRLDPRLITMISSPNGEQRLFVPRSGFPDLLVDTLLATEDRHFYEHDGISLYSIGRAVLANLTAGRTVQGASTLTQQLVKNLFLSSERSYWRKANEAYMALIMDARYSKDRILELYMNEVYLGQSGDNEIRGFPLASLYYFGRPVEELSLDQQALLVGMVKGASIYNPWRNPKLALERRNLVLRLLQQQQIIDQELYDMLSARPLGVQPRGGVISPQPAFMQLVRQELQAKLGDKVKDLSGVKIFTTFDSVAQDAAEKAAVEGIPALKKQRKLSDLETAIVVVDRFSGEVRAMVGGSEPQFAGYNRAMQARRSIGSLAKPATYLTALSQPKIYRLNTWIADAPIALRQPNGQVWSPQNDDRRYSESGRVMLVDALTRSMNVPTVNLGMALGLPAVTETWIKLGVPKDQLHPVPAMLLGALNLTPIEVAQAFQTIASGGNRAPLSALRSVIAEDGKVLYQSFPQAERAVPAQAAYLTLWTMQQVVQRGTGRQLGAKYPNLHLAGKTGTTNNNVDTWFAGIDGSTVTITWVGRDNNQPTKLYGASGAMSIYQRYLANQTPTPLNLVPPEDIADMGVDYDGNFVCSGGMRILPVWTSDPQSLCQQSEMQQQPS

Row | Binder | Kd (PBP1bγ) [µM] | binding result (PBP1b (58-804))
1 | B1 | 8.1 ± 1.7 | –
2 | B2 | – | binds
